The values that follow are results of earlier work, collected in PMC7443330.

The data set has as its target Spike RBD RBD (SARS-CoV-2) (UniProt P0DTC2).

As a reminder, the Kd is the concentration at which binding is half-saturated. Spike binding peptide 1 (SBP1): the Kd is 0.047 µM.
